PMC9478924
pKd: −log10 of the molar value.

Target: EVA-4 (UniProt P0C8E9)
Experiment: SPR

EVA-4, sequence (P0C8E9 24-127): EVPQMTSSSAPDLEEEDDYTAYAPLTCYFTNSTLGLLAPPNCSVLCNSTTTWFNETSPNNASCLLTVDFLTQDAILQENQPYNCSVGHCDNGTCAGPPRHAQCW
CCL13, Q99616 17-98 (ligand; biotin on the Avi-tag (Bir-A ligase); other documents disagree on this pair), sequence (Q99616 17-98): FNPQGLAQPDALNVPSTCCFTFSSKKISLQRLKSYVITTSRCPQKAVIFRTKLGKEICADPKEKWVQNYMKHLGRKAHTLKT

In the case of “CCL13, Q99616 17-98 (ligand; biotin on the Avi-tag (Bir-A ligase); other documents disagree on this pair)”, the pKd was 6.60.
